From patent US20240084003A1 (SIMCERE ZAIMING PHARMACEUTICAL, published 2024)

T1: human CD22 domain5-7-His (human, UniProt P20273 414-687)
T1 construct: also called hCD22 domain5-7-His; not shown: His tag
T1 sequence: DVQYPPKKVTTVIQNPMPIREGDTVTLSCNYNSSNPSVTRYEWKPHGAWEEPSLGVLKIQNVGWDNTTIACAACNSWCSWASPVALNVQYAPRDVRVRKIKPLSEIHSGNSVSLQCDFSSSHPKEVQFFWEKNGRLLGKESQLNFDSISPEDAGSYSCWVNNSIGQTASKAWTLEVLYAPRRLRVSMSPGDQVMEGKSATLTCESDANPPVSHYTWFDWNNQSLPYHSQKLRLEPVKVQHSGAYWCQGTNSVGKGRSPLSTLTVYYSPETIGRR

T2: monkey CD22 protein (ACROBiosystems, SI2-R52Ha) (monkey (rhesus monkey in paragraph 148), UniProt H9G1X2 18-686)
T2 construct: extracellular domain; also called monkey CD22-ECD; monkey CD22-ECD-His
T2 sequence: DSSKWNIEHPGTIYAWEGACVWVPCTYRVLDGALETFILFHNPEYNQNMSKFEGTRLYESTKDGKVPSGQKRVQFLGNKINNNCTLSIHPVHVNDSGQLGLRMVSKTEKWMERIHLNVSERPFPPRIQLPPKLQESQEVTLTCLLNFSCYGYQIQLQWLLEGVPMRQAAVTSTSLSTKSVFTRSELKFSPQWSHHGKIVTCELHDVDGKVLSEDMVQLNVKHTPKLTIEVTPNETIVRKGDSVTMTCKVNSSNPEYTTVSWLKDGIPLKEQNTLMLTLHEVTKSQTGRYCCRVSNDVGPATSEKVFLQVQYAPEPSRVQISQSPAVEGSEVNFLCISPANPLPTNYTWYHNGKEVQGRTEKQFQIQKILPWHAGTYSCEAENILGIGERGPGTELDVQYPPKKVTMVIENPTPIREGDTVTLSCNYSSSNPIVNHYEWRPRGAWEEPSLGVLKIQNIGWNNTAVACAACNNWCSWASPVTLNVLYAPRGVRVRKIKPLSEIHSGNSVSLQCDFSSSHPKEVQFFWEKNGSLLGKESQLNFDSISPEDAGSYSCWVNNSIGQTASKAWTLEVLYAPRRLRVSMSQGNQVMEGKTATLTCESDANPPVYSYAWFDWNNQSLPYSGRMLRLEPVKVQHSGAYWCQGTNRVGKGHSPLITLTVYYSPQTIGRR

T3: human CD22-ECD-His protein (human, UniProt P20273 20-687)
T3 construct: Made in house in HEK293E; also called hCD22-ECD-His; recombinant human CD22-ECD His protein; not shown: His tag
T3 sequence: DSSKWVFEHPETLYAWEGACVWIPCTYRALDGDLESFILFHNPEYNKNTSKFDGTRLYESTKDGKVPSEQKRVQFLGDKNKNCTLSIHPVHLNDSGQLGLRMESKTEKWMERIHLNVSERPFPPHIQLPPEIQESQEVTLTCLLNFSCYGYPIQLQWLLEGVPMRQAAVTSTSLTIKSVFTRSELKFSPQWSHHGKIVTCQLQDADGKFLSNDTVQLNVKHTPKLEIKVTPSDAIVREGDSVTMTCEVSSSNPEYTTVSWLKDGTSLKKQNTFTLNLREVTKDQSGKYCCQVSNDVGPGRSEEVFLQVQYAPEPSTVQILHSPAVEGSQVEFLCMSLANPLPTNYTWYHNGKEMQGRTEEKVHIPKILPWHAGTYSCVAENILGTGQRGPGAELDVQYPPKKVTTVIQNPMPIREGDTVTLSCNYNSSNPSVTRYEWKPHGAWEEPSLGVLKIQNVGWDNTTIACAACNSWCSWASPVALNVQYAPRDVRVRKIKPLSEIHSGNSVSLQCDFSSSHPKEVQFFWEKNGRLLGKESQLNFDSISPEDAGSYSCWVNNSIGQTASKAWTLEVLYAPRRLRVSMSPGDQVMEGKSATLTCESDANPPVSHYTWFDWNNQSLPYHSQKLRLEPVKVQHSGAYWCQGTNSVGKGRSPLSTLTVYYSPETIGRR


Assays:
human CD22 domain5-7-His = target: T1, human CD22 domain5-7-His; test: ELISA, human CD22 domain5-7-His coated
[1] = target: T2, monkey CD22 protein (ACROBiosystems, …); test: ELISA, monkey CD22-ECD-His coated
Protocol: In order to detect the binding activity of CD22 human-murine chimeric antibodies to CD22 protein, the purified human CD22-ECD-His protein obtained in Example 2 was diluted with PBS to a final concentration of 2 μg/mL, and then added to 96-well ELISA plate at 100 μl/well. The plate was sealed with plastic film and incubated overnight at 4° C., the plate was washed 2 times with PBS the next day, and then a blocking solution [PBS+2% (w/w) BSA] was added for blocking at room temperature for 2 hours. […] After incubation at 37° C. for 2 hours, the plate was washed 3 times with PBS. HRP (horseradish peroxidase)-labeled secondary antibody (purchased from Sigma, catalog number: A0170) was added, and incubated at 37° C. for 2 hours, and the plate was washed 5 times with PBS. TMB substrate was added at 50 μl/well, and incubated at room temperature for 30 minutes, then a stop solution (1.0 N HCl) was added at 50 μl/well.
In order to detect the species cross-binding activity of the chimeric antibodies, an ELISA plate was coated with commercial murine CD22 protein (ACROBiosystems, catalog number: SI2-M52Ha) and monkey CD22 protein (ACROBiosystems, catalog number: SI2-R52Ha), respectively, and the ELISA detection was performed according to the method in Example 5.1.

[2] = target: T3, human CD22-ECD-His protein; test: ELISA, Ab 0.0001 nM
How it was run: (§1)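 TMB colour read-out, stopped with 1.0 N HCl after 30 min at room temperature, measures binding of CD22 human-murine chimeric antibodies to plate-coated CD22-ECD-His (2 μg/mL, overnight 4 °C). Antibody and HRP secondary steps each ran 2 h at 37 °C.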

[3] = target: T3, human CD22-ECD-His protein; test: ELISA, Ab 0.00001 nM
How it was run: as §1

[4] = target: T3, human CD22-ECD-His protein; test: ELISA, Ab 10.00 nM
How it was run: as §1

| Binder | binding result (human CD22 domain5-7-His) | EC50 (read off the curve) [1] [nM] | OD450 [2] [OD450] | OD450 [3] [OD450] | OD450 [4] [OD450] | EC50 (read off the curve) (human CD22 domain5-7-His) [nM] | binding result [1] |
| --- | --- | --- | --- | --- | --- | --- | --- |
| HA22-hIgG1 (antibody, V domains shown) VH: EVQLVESGGGLVKPGGSLKLSCAASGFAFSIYDMSWVRQTPEKCLEWVAYISSGGGTTYYPDTVKGRFTISRDNAKNTLYLQMSSLKSEDTAMYYCARHSGYGTHWGVLFAYWGQGTLVTVSA VL: DIQMTQTTSSLSASLGDRVTISCRASQDISNYLNWYQQKPDGTVKLLIYYTSILHSGVPSRFSGSGSGTDYSLTISNLEQEDFATYFCQQGNTLPWTFGCGTKLEIKR | no binding (tested: 100 nM) | ~0.05 | 0.33 | 0.19 | 2.61 |  |  |
| F1.105.11 (antibody, human IgG1, kappa, V domains shown, Human-murine chimeric IgG1, kappa) VH: EVQLQQSGPVLVKPGASVKMSCKASGYTFSDYFMNWVKQSHGKSLEWIGIINSYSGGTSYNQKFKGKATLTVDKSSSTAYMELNSLTSEDSAVYYCARWMDYWGQGTSVTVSS VL: DVQITQSPSYLAASPGETITINCRTSESISKHLAWYQEKPGKTNKLLIYSGSTLQSGIPSRFSGSGSGTDFTLTISSLEPEDFAMYYCQQHNEYPWTFGGGTKLEIKR |  | ~0.1 | 0.14 | 0.08 | 2.68 | ~0.1 |  |
| F1.224.1 (antibody, human IgG1, kappa, V domains shown, Human-murine chimeric IgG1, kappa) VH: EVLLHQSGPELVKPGASVKISCKASGYTFTDFNMDWVRQRHGQSLEWIGDVNPNNGGTIYNQKFKGKATLTVDKSSSTVYMDLRSLTSDDTAVYYCVRLGTSDYGEAWFISWGQGTVVTVSA VL: DIVLTQSPASLAVSLGQRATISCRASQSVSTPRYSFMHWYQQKPGQPPKLLIKYASNLESGFPARFTGSGSGTDFTLNIHPVEEEDTAAYYCQQSWAIPWTFGGGTKLEIKR | no binding (tested: 100 nM) | ~0.04 | 0.34 | 0.17 | 2.43 |  |  |
| F1.120.15 (antibody, human IgG1, kappa, V domains shown, Human-murine chimeric IgG1, kappa) VH: QVQLQQSGPELVKPGASVKISCKASGNAFSNSWMNWVKQRPGKGLEWIGRVYSEDGDTQYNGKFRDKATLTADRSTSTAYMQLSSLTSEDSAVYFCARWLIYYGTYGAMDYWGQGTSVTVSS VL: DIQMTQTTSSLSASLGDRVTISCRASQDINNYLNWYHQKPDGTVKLLIYFTSRPYSGVPSRFSGSGSGTDYSLTISNLEQEDIATYFCQQGNTLPWTFGGGTKLEIKR | no binding (tested: 100 nM) | ~0.2 | 0.42 | 0.12 | 2.61 |  |  |
| F1.216.2 (antibody, human IgG1, kappa, V domains shown, Human-murine chimeric IgG1, kappa) VH: QVQLQQSGPEVVRPGASVKISCKASGYAFSSSWMNWMKQRPGKALEWIGRIYPGDGDTNYSGEFKVKATLTADKSSSTAYMQLSSLTSEDSAVYFCAREGSYYSNPWYFDYWGQGTTLTVSS VL: DVLVTQTPLSLPVSLGDQASISCRSSQSIVQSNGDTYLEWYLQKPGQSPKLLIYKVSNRFSGVPDRFSGSGSGTDFTLKISRVEAEDLGVYYCFQGSHVPFTFGSGTKLEIKR | no binding (tested: 100 nM) | ~0.01 | 0.45 | 0.2 | 2.53 |  |  |
| F1.200.11 (antibody, human IgG1, kappa, V domains shown, Human-murine chimeric IgG1, kappa) VH: QNQLVQSGPELKKPGETVKISCKASGYTFTTAGMQWVQKMPGKGFKWIGWINTLSGEPKYAEDFKGRFAFSLETSATTAYLQISNLKNEDTATYFCARAYYSNLYWYFDVWGTGTTVTVSS VL: DIVMTQSQKFMSTTVGDRVTITCKASQNVVTAVAWYQQKPGQSPKVLIYSASNRYSGVPDRFTGSGSGTDFTLTISNMHSEDLANYFCHQYSSYPFTFGSGTKLEIKR |  | ~1 | 0.51 | 0.33 | 2.33 | ~0.03 |  |
| F1.17.1 (antibody, human IgG1, kappa, V domains shown, Human-murine chimeric IgG1, kappa) VH: QVQLKESGPGLVAPSQSLSITCTVSGFSLSRYTVHWVRQPPGKGLEWLGMIWGGGSTDYNSALKSRLSISKDNSKSQVFLKMNSLQTDDTAMYYCARPHDFDAGGFAYWGQGTLVTVSA VL: QIVLTQSPAILSTSPGEKVTMTCSASSRVNYMYWYQQKPGSSPRLLIYDTSNLASGVPVRFSGSGSGTSYSLTISRMEAEDAATYYCQQWTSYPLTFGAGTKLELKR | no binding (tested: 100 nM) | ~0.02 | 0.2 | 0.11 | 2.21 |  |  |
| F1.280.1 (antibody, human IgG1, kappa, V domains shown, Human-murine chimeric IgG1, kappa) VH: QIQLVQSGPELKKPGETVKISCKASGYTFTTYGMSWVKQTPGKGLTWMGWINTDSGVPTYADDFKRRFAFSLEASATTAYLQINNLKNEDTATYFCARGGPDYWGQGTTLTVSS VL: DILLTQSPATLSVTPGETVSLSCRASQSIYKNLHWYHQKSHRSPRLLIKYASDSISGIPSRFTGSGSGTNFTLSINSVKPEDEGIYYCLQGYIVPLTFGAGTKLELKR | no binding (tested: 100 nM) |  | 0.24 | 0.13 | 2.3 |  |  |
| F1.257.3 (antibody, human IgG1, kappa, V domains shown, Human-murine chimeric IgG1, kappa) VH: QVQLQQSGPELARPGASVKLSCKASGYTFTSYGISWVKQRTGQDLEWIGEIYPKLGTTYYNEKFKDKATLTTDRSSSTAYMALRSLTSEDSAVYFCACPHYYATRGGDYWGQGTTLTVSS VL: EIVLTQSPATLSVTPGDSVTFSCRASQSISNHLHWYQQKSHESPRLLIRYASQSISGIPSRFSGSGSGTDFTLSLSSVETEDFGVYFCQQSHSWPYTFGGGTKLEIAR | no binding (tested: 100 nM) |  | 0.28 | 0.2 | 2.64 |  |  |
| F2.180.16 (antibody, human IgG1, lambda, V domains shown, Human-murine chimeric IgG1, lambda) VH: EVKLVESGGGLVLPGGSLKISCAASGFTFSDYYMYWIRQTPDKRLEWVAYISNTGYSTFYPDSVKGRFTVSRDNAKNTLYLQMSRLQSEDTAMYYCARHGILYAMDYWGQGTSVTVSS VL: QPVLTQSSSASFSLGASAKLTCTLSSQYSTYTIGWYQQQPLKPPKYVMELKHDGSRHTGDGIPDRFSGSSSGADRYLSISNIQPEDEATYICGVGDTIKEQFMYVFGGGTKVTVLG |  |  | 0.31 | 0.21 | 2.08 |  | no binding (tested: 100 nM) |
